Data on one substance can be found in article PMC9870083.

The target of this assay is RARα (UniProt P10276). Description: Flag IP of RARα, GFP-p65 blot. Conditions: reference: GFP-p65 wild type; sites S276.

Take “RelA/p65 (from UniProt Q04206) GFP-p65-S276A”: the “binding against the reference” value is “lost”.
